Our source for the Kd values is paper PMC10329719 (2023).

Primed or numbered codes have the meaning given here. Where no end group is shown, it is not given here. FITC′ = not defined here

What all share (assay): ELISA-like fluorescence binding assay
On the technique in general: ELISA stands for enzyme-linked immunosorbent assay.

One experiment concerns the target T1, TβR3 (Homo sapiens, UniProt Q03167).
T1 chain: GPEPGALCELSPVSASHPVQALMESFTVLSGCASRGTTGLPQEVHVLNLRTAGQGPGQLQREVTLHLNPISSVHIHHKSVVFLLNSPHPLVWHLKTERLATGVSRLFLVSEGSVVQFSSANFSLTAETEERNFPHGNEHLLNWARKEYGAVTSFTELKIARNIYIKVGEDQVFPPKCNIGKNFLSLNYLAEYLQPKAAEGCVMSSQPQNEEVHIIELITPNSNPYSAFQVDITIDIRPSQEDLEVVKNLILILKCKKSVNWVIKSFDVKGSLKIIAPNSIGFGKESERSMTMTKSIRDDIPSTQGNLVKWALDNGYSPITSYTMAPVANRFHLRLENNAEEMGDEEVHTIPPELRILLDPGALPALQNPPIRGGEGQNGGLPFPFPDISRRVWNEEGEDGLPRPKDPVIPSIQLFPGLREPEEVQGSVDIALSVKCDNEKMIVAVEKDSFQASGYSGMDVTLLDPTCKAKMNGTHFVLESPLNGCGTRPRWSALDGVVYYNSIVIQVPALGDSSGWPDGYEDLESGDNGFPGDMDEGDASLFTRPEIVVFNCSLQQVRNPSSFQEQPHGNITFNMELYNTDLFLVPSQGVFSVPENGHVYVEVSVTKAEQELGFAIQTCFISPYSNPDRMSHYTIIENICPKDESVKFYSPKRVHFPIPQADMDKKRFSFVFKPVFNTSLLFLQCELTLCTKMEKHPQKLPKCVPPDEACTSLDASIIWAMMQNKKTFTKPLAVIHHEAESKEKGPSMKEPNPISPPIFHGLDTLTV

In a further experiment the target is TβR2 (Homo sapiens, UniProt P37173).
For the next experiment, the target named is T2, TβR1 (Homo sapiens, UniProt P36897).
T2 chain: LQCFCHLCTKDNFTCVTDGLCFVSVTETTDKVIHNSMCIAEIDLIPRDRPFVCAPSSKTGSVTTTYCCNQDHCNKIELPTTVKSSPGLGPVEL

Sequence of TβR2 (P37173 23-166): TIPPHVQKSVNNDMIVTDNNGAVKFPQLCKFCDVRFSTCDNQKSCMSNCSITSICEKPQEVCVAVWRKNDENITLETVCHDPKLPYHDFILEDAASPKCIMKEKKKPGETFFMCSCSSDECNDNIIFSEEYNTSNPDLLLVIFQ

B1: PTβR2I (peptide)
chain: ECGLLPVGRPDRVWRLCK-{FITC′}
modifications: cysteine pairing not given here
The term Kd denotes the equilibrium constant for the complex coming apart. A high value points to weaker binding. In the case of B1, the Kd was more than 34 µM with TβR3, 3.4 µM with TβR2 and more than 34 µM with TβR1.
